We go through 41 sequences from the nanobody polyreactivity screen of Harvey et al. (2022).

This data set can be described thus: yeast display, Sf9 membrane polyspecificity reagent, FACS + sequencing; frameworks hold sequencing errors. In short, it runs like this: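 Galactose-induced (36–48 hours) yeast carrying a synthetic nanobody display library were exposed to 10% biotinylated, detergent-solubilized Sf9 membrane reagent at 4 °C for 1 hour. FACS followed streptavidin microbead enrichment, using low and high (top ~1%) gates for expression (anti-HA) and reagent binding (streptavidin). Colony PCR, MiSeq 2 × 250 sequencing and CDR-length filtering followed. Labels for polyreactivity reflect the gate of origin.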
Take “QVHLVESGGGLVQAGGSLRLSFAASGSTFYVNAMGWYRQAPGKERELVAAIRYSGGRTYYADSVKGRFTISRDNAKNNVYLQLNRLKPEDTAVYFCAATTYYGGLYTREFDYWGQGTQVTVSS”: the “polyreactivity (PSR sort gate)” value is listed as “low polyreactivity”. As for “QVHLVESGGGLVQAGGSLRLSGAASGSTFLEYARGWYRQAPGKERELVADISSGGGTHYADSVKGRFTISRDNAKNTVYLQMNSLKPDDTAVYYCNRDISGSSGGELDYWGQGSQVTVSS”, the entry is “low polyreactivity”. For “QVHLVESGGGLVQAGGSLRLSSAASGRTFRGNAMGWYRQPPGKEREFDAVISGSGGSTYYADSVKGRFTISRDNAKNTVYLQMNSLKPEDTAVYYCGDKPSRWQRYDYWGQGTQVTVSS”, the “polyreactivity (PSR sort gate)” value is reported as “high polyreactivity”. The entry for “QVHLVESGGGLVQAGGSLRLSSAPSGSILLINAMGWYRQAPGKERELVAAIRTGGSTYYADSVKGRFTISRDNAKNTVYLQMNSLKPEDTAVYYCNVDYDVQPGGEFDYWGQGTQVTVSS” is “low polyreactivity”. As for “QVHLVESGGGLVQAGGSLRLSWAASGFIFKNYAMGWYRQAPGKERELVAVISRSGGSTYYADSVKGRFTISRDNAKNTVYLQMNSLKPEDTAVYYCNADRWKSGYWRYDYWGQGTQVTVSS”, the entry is “low polyreactivity”; as for “QVHLVESGGGLVQAGGSLRLSWAASGSILRQYAMGWYRQAPGKERELVATITGDGSTNYADSVKGRFTISRDNAKNTVYLQMNSLKPQDTAVYYCITDLTYPNPNVEVMVYGFKLDYWGQGTQVTVSS”, “low polyreactivity”. “QVHLVESGGGLVQAGGSLRLTCAASGFIFQWYAMGWYRQAPGKERELVAAINSSGSTNYADSVKGRFTISRDNAKNSGYLQRNILKPEDTAVYYCAAHWRYGRKFDYWGQGTQVTVSS”: the “polyreactivity (PSR sort gate)” value is on record as “high polyreactivity”. Take “QVHLVESGGGLVQAGGSLSLSCAASGLNFRTYAMGWYRQAPGKERELVAAISSSGGSTYYADSVKGRFTISRDNAKNTVYLQMNSLKPEDTAVYYCNVGSRRRRYLDRYEYWGQGTQVTVSS”: the “polyreactivity (PSR sort gate)” value is listed as “high polyreactivity”. As for “QVHLVESGGGLVQAGRSLRLSCAASGIIFQLYAMGWYRQPPGKERELVATISSVGSTNYADSVKGRFTISRDNAKNTVYLEMTSLNPEDTAVYYCNAARYGWGYFYGLNYWGQGTQVTVSS”, the entry is “low polyreactivity”; as for “QVHLVESGGGLVQAGRSLRLSCAASGLTFGTNPMGWYRQAPGKERELVAAITWRGGSTSYADSVKGRFTISRDNAKNTVYLQMNSLKPEDTAVYYCAVRLRYPGNTFYDWGQGTQVTVSS”, “high polyreactivity”; as for “QVHLVESGGGLVQAGRSLRLSCAASGRTSAYYAMGWYRQAPGKERELDAGITRGGRTNYADSVKGRFTISRDNAKNTVYLQMNSLKPEDTAVYYCAAKYGYYWNSRTSGYWGQGTQVTVSS”, “high polyreactivity”.

In the case of “QVHLVESGGGLVQEGGSLRLSFAASGSSFIWYGMGWYRQAPGKARELVATITSSGSTNYADSVKGRFTISRDNAKNTVYLQMNSLKPEDTAVFYCAKRGPLRHYSWGQGTQVTVSS”, the “polyreactivity (PSR sort gate)” value is “low polyreactivity”. As for “QVHLVESGGGLVQSGGSLRLSCAASGTIFEANVKGWYRQAPGKERELVATISSDGTSTYYADSVKGRFTISRDNAKYTVYLQMNSRKPEDTAVYYCNADAGAGWYPDSKYAYDYWGQGTLVTVSS”, the entry is “low polyreactivity”; as for “QVHLVESGGGLVQSGGSLRLSCAATGNIFGRYAKGWYRQAPGKERELVAGISRGVSTSYADSVKGPFTISRDNAKNTVYLQMYSLKPDDTAVYYCTKRPWYLSDYWGQGTEVTVSS”, “low polyreactivity”; as for “QVHLVESGGGVLQAGVSLRLSCAASGFTFYGNAMGWYRQAAGKERELVAANSGRGGSTYYADSVKGRFTISRDNEKYTVYLHMNSLKPEDTAVYYCDIYVSWPLYYYWGQGTQVTVSS”, “low polyreactivity”.

As to “QVHLVESGGGVVQAGGSLRLSCAASGFTFVPYAMGWYRQAPGKETETNADSVKGRFTSSRDNAKNTVYLQMNSLKPEDTAVYYCAAGGYGPYDYWGQGTQVTVSS”, the “polyreactivity (PSR sort gate)” value is listed as “low polyreactivity”.

Regarding “QVHLVESGGGVVQAGGSRRLSCAASGSIIHDNAMGWYRQAPGKERELVADITWSGGSTYYADSVKGRFTISRDNAKITVYLQMNSLKPEETAVYDCAAGSGHWYYYDFDYWGQGTLVTVSS”, the “polyreactivity (PSR sort gate)” value is “high polyreactivity”. As for “QVHLVESGGRLVQAGGSLRLSCAASGFIFQWYAMGWYRQAPGKERELVAAINSSGSTNYADSVKGRFTISRDNAKNTVYLQMNSLKPEDTAVYYCAAHWRYGRKFDYWGQGTQVTVSS”, the entry is “high polyreactivity”; as for “QVHLVESGGRLVQAGGSLRLSCAASGSTFTINVMGWYRQAPGKERELVADISWSGGSTYYADSVKGRFTISRDNAKNTVYSQMNSLYPVYTAVSYCATDGAYWTYYSWYDYWGQGTQVTVSS”, “low polyreactivity”; as for “QVHLVESGGVLVQAGCSLRLSCSASGSTFDFNAMGWYRQAPGKERELVAAITSGDSTNYADSVQGRFTISRDNAKNTVYLQMNSLKPEDTAVYYCAARYYWKYITSAARRAGSDYWGQGTQVTVSS”, “low polyreactivity”. The entry for “QVHLVESRGGLVQAGGSLRLSCAASGFIFRWYAMGCYRQAPGKERELVAAISSSSGSTYYADSVKGRFTISRDNAKNTVYLQMNSLKPEDTAVYYCAAESNRRFEGEYWGQGTQVTVSS” is “high polyreactivity”; for “QVHLVESVGGLVQAGGSLRLICAASGRIFRRYAMGWYIQAPGKEREFVAAISYGGGSTYYADSVKGRFTISRDNAKNTVYLQMNSLKPEDSAVYYCNADVPKSLLLYYPWGYGYWGQGTQVTVSS” it is “low polyreactivity”. The entry for “QVHLVESVGGLVQAGGSLRLSCAASGRTSGANAMGWYRQAPGKERELVAAIRYSVGSTYYADSVKGRFTISRDNAKNTVYLQMISLKPEDTAVYYCAARGYPKRGGYWGQGTQVTVSS” is “high polyreactivity”; for “QVHLVETGGGLVQAGGSLRLSCAASGSIFFVYAMGCYRPAPGKERELVAAISNDGSTNYADSVKGRFTISRDNAKNTVYLQMNCLIPEDTAVYYCAKDTRTKYDYWGQGTQVTVSS” it is “low polyreactivity”. Consider “QVHLVQSGGGLVQAGGSLRLSCAASGRIFKFYAMGWYRQAPGKEMELVATISRGGSTYYADSVKGRFTISRDNAKNTVYLQMNSLKPEDTAVYYCAKQRERYYWFGAWSYDYWGQGTQVTVSS”, for which the “polyreactivity (PSR sort gate)” value is “low polyreactivity”.

With “QVHLVQTGGGLVQAGGSLRLSCAASGRIFRTNGMGWYRQAPGKERELVAAISSGDSTYYADSVKVRFTISRDNAKNTVYLQMNSLKPEDTAVYYCAADFGRKGGPGYDYWGQGTQVTVSS”, the “polyreactivity (PSR sort gate)” value is recorded as “low polyreactivity”. The entry for “QVHLYESGGGLVQLGGSLRLSCAASGTIFDYYTMGWYSQAPGKEREFVAAIAYGTNTYYADSVKGRFSISRDNAKHTVFLLLYSLKPEDTAVYYCATVGPRGLYYYWGQGTQVTVSS” is “high polyreactivity”; for “QVHVVESWGGLVQAGGSLSLSCAASGLIIWMYTMGWYRQAPWKERELVAAIDWSGGSTYYADSVKGRFTISRDNAKNTVYLQMNSLKPEDTAVYYCAADPEPSYRFDYWGQGTQVTVSS” it is “low polyreactivity”; for “QVKHVESGGGLVQAGGSLRLTCAASGSIFYRNAMGWYRQAPGKERELVAGISRRGGSTYYADSVKGRFTMSRDNAKNTVYLQMNSLKPEDTAGYYCAADFAWVRLTYGYCGQGTQVTVSS” it is “low polyreactivity”. The entry for “QVKIVESGGGLVQAGGSLRLSCAASGSTYYYYSMGWYRQAPGKERELVAAITGSGTSTYYADSVKGRFTISRDNAKNTVYLQMNSLKPEYTAVYYCAAEYPWYYYIDVSYTDYGYWGQGTQVTVSS” is “high polyreactivity”; for “QVKLEDSGGGLVQAGGSLRLSCAASGSTFEKYVMGWYRQAPGKERELVAAITYSGDSTYYADSVKGRFTISRDNAKNTVYLQMNSLKPEDTAVYYCAAKTTRTSIPRKGRGYYYWGQGTQVTVSS” it is “high polyreactivity”. As for “QVKLEESGGGLVQAGGSLRLSSAASGYTIGIYAMGWYRQAPGKERELVAAISADGGITYYADSVKGRFTISRDNAKNTVYLQMNSLKPEDTAFYYCNTLVDQDAYAGFRLDYWGQGSQVTVSS”, the entry is “low polyreactivity”; as for “QVKLGESGGGLVQAGGSLLLSCAASGRTFWYYTMGWYRQAPGKERELVASITAGSGTTYYADSVKGRFTISRHNAKNTVYFQMYSLKPEDSAGYYCSSKNTPSFFYYDRYDYWGHGTQVTVSS”, “low polyreactivity”; as for “QVKLQGSGGGLAQAGDSLRLSCAASGTIFSEYNNGLVSPGAGQRTRTCCRYWCWGNTYYADSAKGRFTTSRDNAKNSVYLQKNSLKPEDTAVYYCAFNLPYPSRHIYRGQGTQVTVSS”, “high polyreactivity”. “QVKLVESAGGLVQAGGSLRLSCAASGSIFPYNVMGWYRQAPGKERELVAAITRRGGSTYYADSVKGRFTISRDNAKNTVYLQMNSLKPEDSAVYYCAAVPYPRGIGYDYWGQGTQVTVSS”: the “polyreactivity (PSR sort gate)” value is “high polyreactivity”. The entry for “QVKLVESAGGLVQAGGSLRLSCPASGIIFGLYTMGWYRQAPGKERELVAAISDSGGRTYYADSVKGRFTISRDNVKNTVYFQMNSRKPADTAVYYCATRWPNYGGYYYWGLGTQVTVSS” is “high polyreactivity”. For “QVKLVESGAGLVQAGGSLRLSCAASGITFYWYAIGWYRPAPGKEMELVADITSSGSSTYYADSVKGRFTISRDNAKNTVYLQMNSLKPEDTAVYYCNARPGRRSLRSRTYDYWGQGTQVTVSS”, the “polyreactivity (PSR sort gate)” value is “high polyreactivity”. For the sequence “QVKLVESGGGKVQAGGSLRLSCAASGYTFDPNAIGWYRQEPGKERELVAAISRIGGSTYYADSVKGRFTISRDNAKTTLYVQMNSLKPEDTAVYYCAVDWYLTGHWADDYWGQGTQVTVSS”, the “polyreactivity (PSR sort gate)” value is reported as “low polyreactivity”. Regarding “QVKLVESGGGLVHAGGSLRLSCSASGRIIGFNAMGVYRQAPGKERELVASIRTTGGSTRYADSVKGRFTISRDNAKNTVSLQMNSLKPEDTAVYYCAARWGKTRWQYNYWGHGTQVTVSS”, the “polyreactivity (PSR sort gate)” value is “high polyreactivity”. As for “QVKLVESGGGLVKAGGSLRLSCAASGSISDWYAMGWYIQAPGKERELVAAISNSDGSTYYADSEKGRFTISRDNAKNTVYLQMNSLQPEYTAVYYCNASDAHEDRKSEYWGQGTQVTVSS”, the entry is “low polyreactivity”; as for “QVKLVESGGGLVPAGGSLRLSCAASGNIFVNYAMRWYRQAPGKERELVASINYNGGITYYADSVKGRFTISRDNAKNTVYLQMNSLKPEDTAVYDCDKDGGGLLRWYTDEYDYWGQGTQVTVSS”, “low polyreactivity”.
